{"source": "patent US20200399332A1", "about": "(published 2020)", "key": {"[1]": {"molecular_target": "the molecule itself", "assay": "self-association; non-reducing SDS-PAGE, CBB staining", "from_the_text": "The recovered culture supernatant was applied to an antibody column obtained by immobilizing mouse anti-human AIM monoclonal antibody (clone 7, autologously manufactured) on HiTrap NHS-activated HP column (GE Healthcare Life Sciences) to purify human rAIM. The human rAIM bound to the antibody column was eluted with 0.1 M glycine-HCl (pH2.5), and immediately neutralized with 1 M Tris-HCl (pH 8.5) to obtain human rAIM eluate. The buffer in the eluate was substituted with Dulbecco's Phosphate-Buffered Saline (DPBS) by using Amicon Ultra filter concentrators (Millipore) to perform concentration. The protein level of the human rAIM concentrate was quantified using Bcinchoninic acid (BCA) assay (Pierce), and the final concentration was adjusted to 2.0 mg/mL with DPBS. The wild-type human rAIM protein (1 μg) purified and concentrated as mentioned above was separated under non-reducing conditions by polyacrylamide gel electrophoresis (SDS-PAGE) based on the difference in the molecular weights, Coomassie Brilliant Blue (CBB) staining was performed, and wild-type human rAIM was detected.\nThe wild-type mouse rAIM was prepared as follows. […] The protein level of the mouse rAIM concentrate was quantified using BCA assay, and the final concentration was adjusted to 2.0 mg/mL with DPBS. […]"}, "[2]": {"molecular_target": "the molecule itself", "assay": "self-association; non-reducing SDS-PAGE, Oriole staining, 100 ng"}, "[3]": {"molecular_target": "the molecule itself", "assay": "self-association; non-reducing SDS-PAGE, Oriole staining", "from_the_text": "To verify the possibility of the cysteine at amino acid number 168 and the cysteine at amino acid number 277 of wild-type human AIM shown in SEQ ID NO: 1 being involved in the multimerization of wild-type human rAIM, the inventors prepared mutant human rAIM in which the above-mentioned cysteines are substituted with different amino acids. First, to maintain the function of wild-type human rAIM, the amino acid to be used for substitution was studied. Since cysteine is hydrophilic (hydrogen bond can be formed), electric charge 0, and non-aromatic, serine, threonine, asparagine, glutamine were selected as 4 similar amino acids. […] The mutant human rAIM was prepared as follows. […] The purified and concentrated wild-type, 2CS, 3CS, 2/3CS human rAIM proteins, each 100 ng, were separated by SDS-PAGE under non-reducing conditions based on the difference in the molecular weights, Oriole staining was performed, and each human rAIM protein was detected."}}, "data": [{"protein": "wild-type mouse recombinant AIM (other, Secreted from HEK293 / HEK293T cells; also called wild-type mouse rAIM; mouse rAIM) VQLVGGAHRCEGRVEVEHNGQWGTVCDDGWDRRDVAVVCRELNCGAVIQTPRGASYQPPASEQRVLIQGVDCNGTEDTLAQCELNYDVFDCSHEEDAGAQCENPDSDLLFIPEDVRLVDGPGHCQGRVEVLHQSQWSTVCKAGWNLQVSKVVCRQLGCGRALLTYGSCNKNTQGKGPIWMGKMSCSGQEANLRSCLLSRLENNCTHGEDTWMECEDPFELKLVGGDTPCSGRLEVLHKGSWGSVCDDNWGEKEDQVVCKQLGCGKSLHPSPKTRKIYGPGAGRIWLDDVNCSGKEQSLEFCRHRLWGYHDCTHKEDVEVICTDFDV", "values": [{"measurement": "binding result", "setting": "[1]", "value": "binds"}]}, {"protein": "mutant mouse AIM 2CS (cysteine 168 of SEQ ID NO: 2 substituted with serine) (other, Expressed transiently in HEK293T cells; also called 2CS mouse rAIM) VQLVGGAHRCEGRVEVEHNGQWGTVCDDGWDRRDVAVVCRELNCGAVIQTPRGASYQPPASEQRVLIQGVDCNGTEDTLAQCELNYDVFDCSHEEDAGAQCENPDSDLLFIPEDVRLVDGPGHCQGRVEVLHQSQWSTVCKAGWNLQVSKVVCRQLGCGRALLTYGSSNKNTQGKGPIWMGKMSCSGQEANLRSCLLSRLENNCTHGEDTWMECEDPFELKLVGGDTPCSGRLEVLHKGSWGSVCDDNWGEKEDQVVCKQLGCGKSLHPSPKTRKIYGPGAGRIWLDDVNCSGKEQSLEFCRHRLWGYHDCTHKEDVEVICTDFDV", "values": [{"measurement": "binding result", "setting": "[2]", "value": "no binding"}]}, {"protein": "mutant human AIM 2CS (cysteine 168 of SEQ ID NO: 1 substituted with serine) (other, Expressed transiently in HEK293T cells; also called 2CS human rAIM) VRLVGGLHRCEGRVEVEQKGQWGTVCDDGWDIKDVAVLCRELGCGAASGTPSGILYEPPAEKEQKVLIQSVSCTGTEDTLAQCEQEEVYDCSHDEDAGASCENPESSFSPVPEGVRLADGPGHCKGRVEVKHQNQWYTVCQTGWSLRAAKVVCRQLGCGRAVLTQKRSNKHAYGRKPIWLSQMSCSGREATLQDCPSGPWGKNTCNHDEDTWVECEDPFDLRLVGGDNLCSGRLEVLHKGVWGSVCDDNWGEKEDQVVCKQLGCGKSLSPSFRDRKCYGPGVGRIWLDNVRCSGEEQSLEQCQHRFWGFHDCTHQEDVAVICSG", "values": [{"measurement": "binding result", "setting": "[3]", "value": "binds"}]}, {"protein": "mutant human AIM 3CS (cysteine 277 of SEQ ID NO: 1 substituted with serine) (other, Expressed transiently in HEK293T cells; also called 3CS human rAIM) VRLVGGLHRCEGRVEVEQKGQWGTVCDDGWDIKDVAVLCRELGCGAASGTPSGILYEPPAEKEQKVLIQSVSCTGTEDTLAQCEQEEVYDCSHDEDAGASCENPESSFSPVPEGVRLADGPGHCKGRVEVKHQNQWYTVCQTGWSLRAAKVVCRQLGCGRAVLTQKRCNKHAYGRKPIWLSQMSCSGREATLQDCPSGPWGKNTCNHDEDTWVECEDPFDLRLVGGDNLCSGRLEVLHKGVWGSVCDDNWGEKEDQVVCKQLGCGKSLSPSFRDRKSYGPGVGRIWLDNVRCSGEEQSLEQCQHRFWGFHDCTHQEDVAVICSG", "values": [{"measurement": "binding result", "setting": "[3]", "value": "binds"}]}, {"protein": "wild-type human recombinant AIM (apoptosis inhibitor of macrophage, CD5L) (other, Secreted from HEK293 / HEK293T cells; also called wild-type human rAIM; human rAIM) VRLVGGLHRCEGRVEVEQKGQWGTVCDDGWDIKDVAVLCRELGCGAASGTPSGILYEPPAEKEQKVLIQSVSCTGTEDTLAQCEQEEVYDCSHDEDAGASCENPESSFSPVPEGVRLADGPGHCKGRVEVKHQNQWYTVCQTGWSLRAAKVVCRQLGCGRAVLTQKRCNKHAYGRKPIWLSQMSCSGREATLQDCPSGPWGKNTCNHDEDTWVECEDPFDLRLVGGDNLCSGRLEVLHKGVWGSVCDDNWGEKEDQVVCKQLGCGKSLSPSFRDRKCYGPGVGRIWLDNVRCSGEEQSLEQCQHRFWGFHDCTHQEDVAVICSG", "values": [{"measurement": "binding result", "setting": "[1]", "value": "binds"}]}, {"protein": "mutant human AIM 2/3CS (cysteines 168 and 277 of SEQ ID NO: 1 substituted with serine) (other, Expressed transiently in HEK293T cells) VRLVGGLHRCEGRVEVEQKGQWGTVCDDGWDIKDVAVLCRELGCGAASGTPSGILYEPPAEKEQKVLIQSVSCTGTEDTLAQCEQEEVYDCSHDEDAGASCENPESSFSPVPEGVRLADGPGHCKGRVEVKHQNQWYTVCQTGWSLRAAKVVCRQLGCGRAVLTQKRSNKHAYGRKPIWLSQMSCSGREATLQDCPSGPWGKNTCNHDEDTWVECEDPFDLRLVGGDNLCSGRLEVLHKGVWGSVCDDNWGEKEDQVVCKQLGCGKSLSPSFRDRKSYGPGVGRIWLDNVRCSGEEQSLEQCQHRFWGFHDCTHQEDVAVICSG", "values": [{"measurement": "binding result", "setting": "[2]", "value": "no binding"}]}]}
